In the supplement of paper PMC10724198:
± gives the standard deviation of the averaged measurements.

Columns and labels:
Saccharomyces cerevisiae [1] = assay: protein stability index of tFT-peptide fusion (C-terminal peptide) (PSI (0-1 scale)); higher = more stable (slower turnover); conditions: genetic background: wild type; temperature: 30 C
Saccharomyces cerevisiae [2] = assay: as above
Protocol: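 MPS profiling in S. cerevisiae of the tFT-X12 degron library: putative degron peptides plus stable controls, 12 aa, fused to the C-terminus of a sfGFP-mCherry timer. Cells are FACS-sorted into 8 mCherry/sfGFP bins and deep-sequenced. PSI runs from 0 (unstable) to 1 (stable). Backgrounds are wild type, das1Δ and doa10Δ at 30 °C, and wild type, das1Δ, cdc34-1 and cdc53-1 at 37 °C; 2-3 technical replicates each.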

[3] = genetic background: cdc34-1, temperature: 37 C
[4] = genetic background: cdc53-1, temperature: 37 C
[5] = genetic background: das1 deletion, temperature: 30 C
[6] = genetic background: das1 deletion, temperature: 37 C
[7] = genetic background: doa10 deletion, temperature: 30 C
[8] = genetic background: wild type, temperature: 30 C
[9] = genetic background: wild type, temperature: 37 C
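Also: PSI is a weighted mean of sequencing reads over stability bins, variants kept only with over 10 reads, mCherry proximal and sfGFP distal, peptide attached via GGGS linker.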

Sequence	protein stability index (Saccharomyces cerevisiae [1])	protein stability index (Saccharomyces cerevisiae [2]; [3])	protein stability index (Saccharomyces cerevisiae [2]; [4])	protein stability index (Saccharomyces cerevisiae [2]; [5])	protein stability index (Saccharomyces cerevisiae [2]; [6])	protein stability index (Saccharomyces cerevisiae [2]; [7])	protein stability index (Saccharomyces cerevisiae [2]; [8])	protein stability index (Saccharomyces cerevisiae [2]; [9])
FSIFFFLLPSSL	0.464 ± 0.042	0.539 ± 0.03	0.559 ± 0.0082	0.448 ± 0.017	0.604 ± 0.0097	0.443 ± 0.028	0.441 ± 0.025	0.5593 ± 0.0021
RFLVVVRFYWRC	0.439 ± 0.044	0.288 ± 0.087	0.424 ± 0.013	0.245 ± 0.028	0.441 ± 0.0079	0.168 ± 0.015	0.214 ± 0.035	0.36 ± 0.0067
LHSDHLRIILRI	0.514 ± 0.023	0.5966 ± 0.0013	0.63 ± 0.036	0.567 ± 0.036	0.659 ± 0.036	0.382 ± 0.018	0.376 ± 0.0098	0.576 ± 0.022
LLLLRCLWISHA	0.244 ± 0.015	0.324 ± 0.053	0.441 ± 0.029	0.319 ± 0.039	0.5121 ± 0.0012	0.125 ± 0.019	0.145 ± 0.026	0.258 ± 0.0082
SFGLICFLILCG	0.2964 ± 0.00086	0.218 ± 0.0065	0.218 ± 0.052	0.206 ± 0.03	0.372 ± 0.038	0.173 ± 0.023	0.205 ± 0.014	0.301 ± 0.0073
FAVHHLRYILLV	0.106 ± 0.016	0.227 ± 0.029	0.325 ± 0.019	0.316 ± 0.024	0.436 ± 0.0073	0.0929 ± 0.009	0.0847 ± 0.024	0.129 ± 0.016
FPTLHPAIPYLC	0.458 ± 0.042	0.643 ± 0.013	0.672 ± 0.057	0.616 ± 0.017	0.7116 ± 0.0013	0.237 ± 0.01	0.282 ± 0.022	0.468 ± 0.02
FLYIPLYCRLSF	0.256 ± 0.027	0.286 ± 0.034	0.3 ± 0.006	0.302 ± 0.031	0.433 ± 0.019	0.209 ± 0.018	0.147 ± 0.028	0.343 ± 0.011
RRVFPLIIVLLF	0.202 ± 0.0087	0.115 ± 0.023	0.152 ± 0.014	0.172 ± 0.031	0.279 ± 0.016	0.174 ± 0.0077	0.126 ± 0.022	0.221 ± 0.013
FSLWSRRSITVY	0.198 ± 0.057	0.04947 ± 0.00046	0.0405 ± 0.018	0.104 ± 0.042	0.113 ± 0.019	0.0595 ± 0.02	0.0899 ± 0.026	0.0886 ± 0.049
AWGSWTLCVAVH	0.151 ± 0.011	0.0257 ± 0.0088	0.0323 ± 0.0061	0.0888 ± 0.043	0.0713 ± 0.01	0.07331 ± 0.00055	0.089 ± 0.027	0.0602 ± 0.015
VWSSSYVPLGVY	0.398 ± 0.044	0.319 ± 0.015	0.326 ± 0.066	0.275 ± 0.044	0.443 ± 0.0067	0.231 ± 0.015	0.271 ± 0.033	0.384 ± 0.013
GGLWRRLCLGVG	0.329 ± 0.041	0.4 ± 0.021	0.4633 ± 0.0012	0.388 ± 0.018	0.469 ± 0.011	0.3 ± 0.0089	0.311 ± 0.016	0.453 ± 0.016
FCHFSSLVSVSL	0.577 ± 0.18	0.614 ± 0.011	0.6089 ± 0.0042	0.498 ± 0.024	0.6377 ± 0.0016	0.494 ± 0.021	0.496 ± 0.018	0.611 ± 0.025
VLFVRGHTLWLM	0.505 ± 0.033	0.6124 ± 0.0026	0.675 ± 0.01	0.556 ± 0.024	0.702 ± 0.025	0.4861 ± 0.0031	0.458 ± 0.017	0.6344 ± 0.0035
FLTLQSPIQYIV	0.171 ± 0.015	0.584 ± 0.032	0.732 ± 0.013	0.646 ± 0.053	0.7289 ± 0.0016	0.105 ± 0.0049	0.117 ± 0.017	0.124 ± 0.0086
TRKKENERRKNG	0.422 ± 0.031	0.653 ± 0.032	0.7213 ± 0.0044	0.654 ± 0.015	0.71 ± 0.025	0.245 ± 0.013	0.278 ± 0.04	0.558 ± 0.012
LSVVVLVLCVLL	0.353 ± 0.033	0.285 ± 0.028	0.403 ± 0.02	0.279 ± 0.04	0.42 ± 0.027	0.268 ± 0.023	0.283 ± 0.023	0.428 ± 0.082
LPFFSFSPWWFY	0.262 ± 0.033	0.773 ± 0.042	0.808 ± 0.026	0.736 ± 0.04	0.817 ± 0.029	0.209 ± 0.036	0.24 ± 0.036	0.497 ± 0.018
VWFVFVCAVCVL	0.273 ± 0.0097	0.191 ± 0.029	0.298 ± 0.015	0.205 ± 0.012	0.3464 ± 0.003	0.138 ± 0.033	0.163 ± 0.023	0.271 ± 0.012

Sequence	protein stability index (Saccharomyces cerevisiae [1])	protein stability index (Saccharomyces cerevisiae [2]; [3])	protein stability index (Saccharomyces cerevisiae [2]; [4])	protein stability index (Saccharomyces cerevisiae [2]; [5])	protein stability index (Saccharomyces cerevisiae [2]; [6])	protein stability index (Saccharomyces cerevisiae [2]; [7])	protein stability index (Saccharomyces cerevisiae [2]; [8])	protein stability index (Saccharomyces cerevisiae [2]; [9])
SRNSSRYLLLVS	0.316 ± 0.013	0.539 ± 0.05	0.58 ± 0.076	0.52 ± 0.046	0.649 ± 0.0096	0.211 ± 0.032	0.251 ± 0.027	0.405 ± 0.011
DLPKAYCIEMIG	0.328 ± 0.027	0.6033 ± 0.0055	0.718 ± 0.015	0.613 ± 0.034	0.7187 ± 0.005	0.198 ± 0.029	0.215 ± 0.023	0.432 ± 0.02
GRRLGLLNLLSY	0.456 ± 0.064	0.649 ± 0.029	0.744 ± 0.0023	0.625 ± 0.013	0.724 ± 0.019	0.255 ± 0.016	0.305 ± 0.028	0.601 ± 0.027
RPHPLHIPRRLA	0.238 ± 0.028	0.624 ± 0.054	0.6848 ± 0.0035	0.684 ± 0.01	0.692 ± 0.047	0.146 ± 0.011	0.216 ± 0.072	0.391 ± 0.037
SRFFSCCVFPSF	0.766 ± 0.017	0.704 ± 0.02	0.7941 ± 0.0034	0.67 ± 0.037	0.781 ± 0.016	0.6764 ± 0.0041	0.654 ± 0.0089	0.737 ± 0.023
SVLVSVVLFVRS	0.279 ± 0.0029	0.114 ± 0.055	0.237 ± 0.021	0.176 ± 0.019	0.33663 ± 7.1e-05	0.126 ± 0.032	0.168 ± 0.033	0.289 ± 0.026
LPSRWVPLPTPA	0.508 ± 0.016	0.5362 ± 0.0003	0.569 ± 0.024	0.407 ± 0.037	0.59 ± 0.004	0.38 ± 0.016	0.413 ± 0.022	0.56219 ± 0.00016
FSPSHMLRIFCY	0.294 ± 0.055	0.337 ± 0.089	0.355 ± 0.067	0.286 ± 0.033	0.443 ± 0.0051	0.1793 ± 0.00023	0.212 ± 0.0047	0.282 ± 0.0028
CCFVGLRYVLWV	0.365 ± 0.009	0.431 ± 0.022	0.5 ± 0.018	0.345 ± 0.029	0.531 ± 0.0061	0.278 ± 0.012	0.288 ± 0.0082	0.462 ± 0.015
FFATFVPSFLLC	0.407 ± 0.033	0.606 ± 0.023	0.674 ± 0.048	0.556 ± 0.02	0.6776 ± 0.00086	0.268 ± 0.0089	0.305 ± 0.022	0.511 ± 0.021
DLAWAIGRLTKG	0.568 ± 0.2	0.72 ± 0.02	0.769 ± 0.033	0.654 ± 0.029	0.761 ± 0.016	0.653 ± 0.011	0.652 ± 0.0094	0.743 ± 0.013
TSFCIFFVRFVI	0.322 ± 0.025	0.374 ± 0.059	0.478 ± 0.021	0.365 ± 0.022	0.50904 ± 0.00041	0.277 ± 0.021	0.289 ± 0.041	0.469 ± 0.015
LFCVCFYGRIFL	0.423 ± 0.0066	0.443 ± 0.017	0.556 ± 0.038	0.335 ± 0.028	0.526 ± 0.018	0.328 ± 0.018	0.334 ± 0.022	0.5 ± 0.011
RGVPPPPWTPPP	0.539 ± 0.062	0.706 ± 0.041	0.7482 ± 0.0045	0.6792 ± 0.0067	0.731 ± 0.02	0.653 ± 0.012	0.661 ± 0.0081	0.716 ± 0.014
IKWRCLFCVCVL	0.422 ± 0.043	0.477 ± 0.011	0.466 ± 0.012	0.429 ± 0.026	0.489 ± 0.0054	0.371 ± 0.0045	0.375 ± 0.014	0.453 ± 0.008
VLVVTAFTFSCP	0.324 ± 0.0049	0.352 ± 0.049	0.4393 ± 0.00063	0.327 ± 0.018	0.416 ± 0.022	0.319 ± 0.015	0.317 ± 0.015	0.392 ± 0.02
YCFLSWVLMCCF	0.406 ± 0.022	0.457 ± 0.019	0.4613 ± 0.0037	0.399 ± 0.018	0.438 ± 0.011	0.421 ± 0.025	0.386 ± 0.0065	0.42 ± 0.0059
AVPTSPYSLIVY	0.476 ± 0.022	0.524 ± 0.0083	0.495 ± 0.088	0.367 ± 0.0063	0.54146 ± 0.00044	0.326 ± 0.011	0.337 ± 0.021	0.485 ± 0.011
LFHSFFLYCLMS	0.482 ± 0.015	0.56 ± 0.017	0.5796 ± 0.0031	0.616 ± 0.042	0.662 ± 0.04	0.5838 ± 0.0054	0.541 ± 0.022	0.6 ± 0.045
